Here are results for eight molecules from patent US20150344570A1 (published 2015).

Assay [1] addresses T1, FcγRIa extracellular domain with C-terminal His tag (human, UniProt P12314 16-292).
T1 construct: extracellular domain; also called FcgRI; 1a
The experiment in a line: SPR (Biacore); He/Con_1a divided by He/Con_2b (FcγRIa binding over FcγRIIb binding). As to the method: (§1) The heterodimerized antibodies He Abs in which one of the H chains was introduced with an alteration were assayed for their binding activities to each activating FcγR and inhibitory FcγR according to the method described in Example 4. […] The activating FcγRs in FIGS. 26, 27, 28, and 29 are FcγRIa, FcγRIIa (R), FcγRIIa (H), and FcγRIIIa, respectively.
(§2) Analysis of interaction between objective antibody and the FcγR was carried out using Biacore T100 (GE Healthcare). HBS-EP+ (GE Healthcare) was used as the running buffer, and the measurement temperature was set to 25° C. Chips produced by immobilizing the antigen peptide by the amine coupling method to a Series S Sencor Chip CM5 (GE Healthcare), or alternatively, chips produced by allowing preliminarily biotinylated antigen peptides to interact with and immobilize onto a Series S Sensor Chip SA (certified) (GE Healthcare) were used. Antibodies of interest were captured onto an antigen peptide-immobilized chip, and allowed to interact to each FcγR diluted with running buffer. To regenerate and repeatedly use the chip, the antibodies captured on the chip were washed off by reacting 10 mM glycine-HCl, pH 1.5.
In general terms: SPR reads the build-up and loss of mass on a sensor chip optically.

For assay [2], the target named is T1, FcγRIa extracellular domain with …. The assay is described as follows: SPR (Biacore), antibody captured via antigen peptide, FcγR as analyte; relative binding. The procedure:
as §1, §2

For assay [3], the target named is T2, FcγRIIb extracellular domain with C-terminal His tag (human, UniProt P31994 43-217).
T2 construct: extracellular domain; also called FcgRIIb; 2b
T2 sequence (looked up): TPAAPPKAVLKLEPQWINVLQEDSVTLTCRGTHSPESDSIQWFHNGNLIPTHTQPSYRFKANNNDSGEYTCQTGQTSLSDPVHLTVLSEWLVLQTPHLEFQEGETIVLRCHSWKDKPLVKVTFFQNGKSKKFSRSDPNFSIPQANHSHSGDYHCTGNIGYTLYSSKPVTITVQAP
Described as above. As to the method: as §1, §2

T1 sequence (P12314 16-292): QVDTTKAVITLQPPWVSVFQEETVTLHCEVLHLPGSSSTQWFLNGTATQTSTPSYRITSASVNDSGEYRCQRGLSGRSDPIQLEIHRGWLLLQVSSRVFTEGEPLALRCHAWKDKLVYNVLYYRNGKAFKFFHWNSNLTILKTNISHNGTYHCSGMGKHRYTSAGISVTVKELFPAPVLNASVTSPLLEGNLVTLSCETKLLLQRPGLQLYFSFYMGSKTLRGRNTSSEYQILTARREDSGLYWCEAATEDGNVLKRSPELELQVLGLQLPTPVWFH

B1: GpH7-A5/GpH7-B3 variant Q295_01G/GpL16-k0 (antibody, human IgG1, kappa)
heavy 1: not shown
heavy 2: not shown
light: DIVMTQSPLSLPVTPGEPASISCQASESLVHSNRNTYLHWYLQKPGQSPQLLIYKVSNRFSGVPDRFSGSGSGTDFTLKISRVEAEDVGVYYCSQNTHVPPTFGQGTKVEIERTVAAPSVFIFPPSDEQLKSGTASVVCLLNNFYPREAKVQWKVDNALQSGNSQESVTEQDSKDSTYSLSSTLTLSKADYEKHKVYACEVTHQGLSSPVTKSFNRGEC
notes: Heterodimerized anti-glypican-3 IgG1; alteration only in the GpH7-B3 chain, EU numbering; also called He Ab
For B1, in assay [1], the “He_1a/2b (Ia/IIb)” value is 2.12 ratio. Moreover, in assay [2], the He/Con_1a was 97.6 % of GpH7-A5/GpH7-B3/GpL16-k0 (=100). Further, in assay [3], the He/Con_2b was 46 % of GpH7-A5/GpH7-B3/GpL16-k0 (=100).

B2: GpH7-A5/GpH7-B3 variant Q295_03V/GpL16-k0 (antibody, human IgG1, kappa)
heavy 1: not shown
heavy 2: not shown
light: DIVMTQSPLSLPVTPGEPASISCQASESLVHSNRNTYLHWYLQKPGQSPQLLIYKVSNRFSGVPDRFSGSGSGTDFTLKISRVEAEDVGVYYCSQNTHVPPTFGQGTKVEIERTVAAPSVFIFPPSDEQLKSGTASVVCLLNNFYPREAKVQWKVDNALQSGNSQESVTEQDSKDSTYSLSSTLTLSKADYEKHKVYACEVTHQGLSSPVTKSFNRGEC
notes: as for B1
Turning to B2, in assay [1], the “He_1a/2b (Ia/IIb)” value was found to be 1.37 ratio. For the same molecule, the He/Con_1a in assay [2] was 104 % of GpH7-A5/GpH7-B3/GpL16-k0 (=100). Moreover, the He/Con_2b in assay [3] was 75.7 % of GpH7-A5/GpH7-B3/GpL16-k0 (=100).

B3: GpH7-A5/GpH7-B3 variant Q295_20W/GpL16-k0 (antibody, human IgG1, kappa)
heavy 1: not shown
heavy 2: not shown
light: DIVMTQSPLSLPVTPGEPASISCQASESLVHSNRNTYLHWYLQKPGQSPQLLIYKVSNRFSGVPDRFSGSGSGTDFTLKISRVEAEDVGVYYCSQNTHVPPTFGQGTKVEIERTVAAPSVFIFPPSDEQLKSGTASVVCLLNNFYPREAKVQWKVDNALQSGNSQESVTEQDSKDSTYSLSSTLTLSKADYEKHKVYACEVTHQGLSSPVTKSFNRGEC
notes: as for B1
With B3, the “He_1a/2b (Ia/IIb)” value in assay [1] is 2.11 ratio. Besides, in assay [2], the He/Con_1a was 93.7 % of GpH7-A5/GpH7-B3/GpL16-k0 (=100). The He/Con_2b in assay [3] was 44.4 % of GpH7-A5/GpH7-B3/GpL16-k0 (=100).

B4: GpH7-A5/GpH7-B3 variant Q295_02A/GpL16-k0 (antibody, human IgG1, kappa)
heavy 1: not shown
heavy 2: not shown
light: DIVMTQSPLSLPVTPGEPASISCQASESLVHSNRNTYLHWYLQKPGQSPQLLIYKVSNRFSGVPDRFSGSGSGTDFTLKISRVEAEDVGVYYCSQNTHVPPTFGQGTKVEIERTVAAPSVFIFPPSDEQLKSGTASVVCLLNNFYPREAKVQWKVDNALQSGNSQESVTEQDSKDSTYSLSSTLTLSKADYEKHKVYACEVTHQGLSSPVTKSFNRGEC
notes: as for B1
Take B4: the “He_1a/2b (Ia/IIb)” value in assay [1] came out at 1.31 ratio. In addition, the He/Con_1a in assay [2] was 104 % of GpH7-A5/GpH7-B3/GpL16-k0 (=100). In addition, the He/Con_2b in assay [3] is 79.7 % of GpH7-A5/GpH7-B3/GpL16-k0 (=100).

B5: GpH7-A5/GpH7-B3 variant Q295_12R/GpL16-k0 (antibody, human IgG1, kappa)
heavy 1: not shown
heavy 2: not shown
light: DIVMTQSPLSLPVTPGEPASISCQASESLVHSNRNTYLHWYLQKPGQSPQLLIYKVSNRFSGVPDRFSGSGSGTDFTLKISRVEAEDVGVYYCSQNTHVPPTFGQGTKVEIERTVAAPSVFIFPPSDEQLKSGTASVVCLLNNFYPREAKVQWKVDNALQSGNSQESVTEQDSKDSTYSLSSTLTLSKADYEKHKVYACEVTHQGLSSPVTKSFNRGEC
notes: as for B1
On to B5, for which, in assay [1], the “He_1a/2b (Ia/IIb)” value is 1.54 ratio. Moreover, the He/Con_1a in assay [2] was 100 % of GpH7-A5/GpH7-B3/GpL16-k0 (=100). For the same molecule, the He/Con_2b in assay [3] is 65.2 % of GpH7-A5/GpH7-B3/GpL16-k0 (=100).

B6: GpH7-A5/GpH7-B3 variant Q295_16H/GpL16-k0 (antibody, human IgG1, kappa)
heavy 1: not shown
heavy 2: not shown
light: DIVMTQSPLSLPVTPGEPASISCQASESLVHSNRNTYLHWYLQKPGQSPQLLIYKVSNRFSGVPDRFSGSGSGTDFTLKISRVEAEDVGVYYCSQNTHVPPTFGQGTKVEIERTVAAPSVFIFPPSDEQLKSGTASVVCLLNNFYPREAKVQWKVDNALQSGNSQESVTEQDSKDSTYSLSSTLTLSKADYEKHKVYACEVTHQGLSSPVTKSFNRGEC
notes: as for B1
On to B6, for which the “He_1a/2b (Ia/IIb)” value in assay [1] was found to be 1.64 ratio. Also, the He/Con_1a in assay [2] is 102 % of GpH7-A5/GpH7-B3/GpL16-k0 (=100). In assay [3], the He/Con_2b was 62.7 % of GpH7-A5/GpH7-B3/GpL16-k0 (=100).

B7: GpH7-A5/GpH7-B3 variant Q295_14T/GpL16-k0 (antibody, human IgG1, kappa)
heavy 1: not shown
heavy 2: not shown
light: DIVMTQSPLSLPVTPGEPASISCQASESLVHSNRNTYLHWYLQKPGQSPQLLIYKVSNRFSGVPDRFSGSGSGTDFTLKISRVEAEDVGVYYCSQNTHVPPTFGQGTKVEIERTVAAPSVFIFPPSDEQLKSGTASVVCLLNNFYPREAKVQWKVDNALQSGNSQESVTEQDSKDSTYSLSSTLTLSKADYEKHKVYACEVTHQGLSSPVTKSFNRGEC
notes: as for B1
For the molecule B7, the “He_1a/2b (Ia/IIb)” value in assay [1] is 1.54 ratio. The He/Con_1a in assay [2] is 103 % of GpH7-A5/GpH7-B3/GpL16-k0 (=100). Also, in assay [3], the He/Con_2b was 66.8 % of GpH7-A5/GpH7-B3/GpL16-k0 (=100).

B8: GpH7-A5/GpH7-B3 variant Q295_18N/GpL16-k0 (antibody, human IgG1, kappa)
heavy 1: not shown
heavy 2: not shown
light: DIVMTQSPLSLPVTPGEPASISCQASESLVHSNRNTYLHWYLQKPGQSPQLLIYKVSNRFSGVPDRFSGSGSGTDFTLKISRVEAEDVGVYYCSQNTHVPPTFGQGTKVEIERTVAAPSVFIFPPSDEQLKSGTASVVCLLNNFYPREAKVQWKVDNALQSGNSQESVTEQDSKDSTYSLSSTLTLSKADYEKHKVYACEVTHQGLSSPVTKSFNRGEC
notes: as for B1
Consider B8, for which, in assay [1], the “He_1a/2b (Ia/IIb)” value is 1.58 ratio. Besides, in assay [2], the He/Con_1a is 102 % of GpH7-A5/GpH7-B3/GpL16-k0 (=100). Moreover, in assay [3], the He/Con_2b is 64.9 % of GpH7-A5/GpH7-B3/GpL16-k0 (=100).
